The values below come from article PMC4937415, “Peroxiredoxin 1 interacts with and blocks the redox factor APE1 from activating interleukin-8 expression” (Scientific Reports, 2016).

As usually defined, the stoichiometry N is the number of molecules, sites or subunits per partner or assembly.

This data set deals with the molecule itself. Nature of the data set: SEC; as a6, but HeLa cells treated with 20 μM E3330 for 4 h; fractions 23 to 28 probed with anti-PRDX1. On the technique in general: Size exclusion chromatography separates by hydrodynamic size, large species first.

B1: Peroxiredoxin 1 (PRDX1) (natural protein, human (endogenous in HeLaS and HeLa), UniProt Q06830 1-199, looked up)
chain: MSSGNAKIGHPAPNFKATAVMPDGQFKDISLSDYKGKYVVFFFYPLDFTFVCPTEIIAFSDRAEEFKKLNCQVIGASVDSHFCHLAWVNTPKKQGGLGPMNIPLVSDPKRTIAQDYGVLKADEGISFRGLFIIDDKGILRQITVNDLPVGRSVDETLRLVQAFQFTDKHGEVCPAGWKPGSDTIKPDVQKSKEYFSKQK
notes: endogenous PRDX1 of HeLaS and HeLa cells; monomer 22 kDa, dimeric form 44 kDa on blots; source: endogenous, HeLaS nuclear, cytosolic and total extracts; endogenous, HeLa nuclear extract
Regarding B1, the “stoichiometry N” value came to 2.
